The values that follow come from US5821075.

Where only a bound is given, the exact number is not on record here.

The test concerns the target myelin basic protein, 32P-labeled on tyrosine residues.

B1: PTPL1 protein tyrosine phosphatase (enzyme)
chain: MVQPEQAPKVLNVVVDPQGRGAPEIKATTATSVCPSPFKMKPIGLQERRGSNVSLTLDMSSLGNIEPFVSIPTPREKVAMEYLQSASRILDKVQLRDVVASSHLLQSEFMEIPMNFVDPKEIDIPRHGTKNRYKTILPNPLSRVCLRPKNVTDSLSTYINANYIRGYSGKEKAFIATQGPMINTVDDFWQMVWQEDSPVIVMITKLKEKNEKCVLYWPEKRGIYGKVEVLVISVNECDNYTIRNLVLKQGSHTQHVSNYWYTSWPDHKTPDSAQPLLQLMLDVEEDRLASQGPRAVVVHCSAGIGRTGCFIATSIGCQQLKEEGVVDALSIVCQLRMDRGGMVQTSEQYEFVHHALCLYESRLSAETVQ
As for B1, the dephosphorylation (radioactivity released as inorganic phosphate, percentage of total input) was over 30%.
